T1: GST-SPCH (glutathione S-transferase-tagged …) (Arabidopsis thaliana, UniProt Q700C7 1-364)
T1 construct: cDNA cloned into pDEST15; cDNA recombined into pDEST15; also called GST-tagged SPCH; source: E. coli ArcticExpress (DE3), purified (Pierce Glutathione Agarose)
T1 sequence (looked up): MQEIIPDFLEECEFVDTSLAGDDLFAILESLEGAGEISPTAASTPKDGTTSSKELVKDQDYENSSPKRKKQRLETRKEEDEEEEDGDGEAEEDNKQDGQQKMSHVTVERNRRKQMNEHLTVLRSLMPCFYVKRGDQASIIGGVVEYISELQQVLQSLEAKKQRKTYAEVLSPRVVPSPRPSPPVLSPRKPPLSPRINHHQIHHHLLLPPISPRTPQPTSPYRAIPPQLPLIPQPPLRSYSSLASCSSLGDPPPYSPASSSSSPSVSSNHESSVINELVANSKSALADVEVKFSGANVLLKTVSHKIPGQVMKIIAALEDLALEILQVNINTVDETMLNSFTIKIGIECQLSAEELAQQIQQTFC

B1: MBP-SnRK2.2 (maltose-binding protein-tagged SnRK2.2) (enzyme, Arabidopsis thaliana, UniProt Q39192 1-362, looked up)
chain: MDPATNSPIMPIDLPIMHDSDRYDFVKDIGSGNFGVARLMTDRVTKELVAVKYIERGEKIDENVQREIINHRSLRHPNIVRFKEVILTPSHLAIVMEYAAGGELYERICNAGRFSEDEARFFFQQLISGVSYCHAMQICHRDLKLENTLLDGSPAPRLKICDFGYSKSSVLHSQPKSTVGTPAYIAPEILLRQEYDGKLADVWSCGVTLYVMLVGAYPFEDPQEPRDYRKTIQRILSVTYSIPEDLHLSPECRHLISRIFVADPATRITIPEITSDKWFLKNLPGDLMDENRMGSQFQEPEQPMQSLDTIMQIISEATIPTVRNRCLDDFMADNLDLDDDMDDFDSESEIDVDSSGEIVYAL
notes: SnRK2.2/SRK2D, subclass III SNF1-related protein kinase 2, Arabidopsis thaliana; cDNA cloned into pETG-40A; also called SRK2D; source: E. coli ArcticExpress (DE3), purified (MBP amylose resin)
B2: MBP-SnRK2.3 (maltose-binding protein-tagged SnRK2.3) (enzyme, Arabidopsis thaliana, UniProt Q39193 1-361, looked up)
chain: MDRAPVTTGPLDMPIMHDSDRYDFVKDIGSGNFGVARLMRDKLTKELVAVKYIERGDKIDENVQREIINHRSLRHPNIVRFKEVILTPTHLAIIMEYASGGELYERICNAGRFSEDEARFFFQQLLSGVSYCHSMQICHRDLKLENTLLDGSPAPRLKICDFGYSKSSVLHSQPKSTVGTPAYIAPEVLLRQEYDGKIADVWSCGVTLYVMLVGAYPFEDPEEPRDYRKTIQRILSVKYSIPDDIRISPECCHLISRIFVADPATRISIPEIKTHSWFLKNLPADLMNESNTGSQFQEPEQPMQSLDTIMQIISEATIPAVRNRCLDDFMTDNLDLDDDMDDFDSESEIDIDSSGEIVYAL
notes: SnRK2.3/SRK2I, subclass III SNF1-related protein kinase 2, Arabidopsis thaliana; cDNA cloned into pETG-40A; also called SRK2I; source: E. coli ArcticExpress (DE3), purified (MBP amylose resin)
B3: MBP-SnRK2.6 (maltose-binding protein-tagged SnRK2.6) (enzyme, Arabidopsis thaliana, UniProt Q940H6 1-362, looked up)
chain: MDRPAVSGPMDLPIMHDSDRYELVKDIGSGNFGVARLMRDKQSNELVAVKYIERGEKIDENVKREIINHRSLRHPNIVRFKEVILTPTHLAIVMEYASGGELFERICNAGRFSEDEARFFFQQLISGVSYCHAMQVCHRDLKLENTLLDGSPAPRLKICDFGYSKSSVLHSQPKSTVGTPAYIAPEVLLKKEYDGKVADVWSCGVTLYVMLVGAYPFEDPEEPKNFRKTIHRILNVQYAIPDYVHISPECRHLISRIFVADPAKRISIPEIRNHEWFLKNLPADLMNDNTMTTQFDESDQPGQSIEEIMQIIAEATVPPAGTQNLNHYLTGSLDIDDDMEEDLESDLDDLDIDSSGEIVYAM
notes: SnRK2.6/SRK2E/OST1, subclass III SNF1-related protein kinase 2, Arabidopsis thaliana; cDNA cloned into pETG-40A; also called SRK2E; OPEN STOMATA 1; source: E. coli ArcticExpress (DE3), purified (MBP amylose resin)

Molecular target: T1, GST-SPCH (glutathione …)
Experiment: pull-down; GST-SPCH or GST (1 ug) on Pierce Glutathione Agarose; MBP-SnRK2.2/2.3/2.6 or MBP alone (1 ug) added; 4 C, 2 hours; washed five times with 20 mM tris-HCl pH 7.5, 300 mM NaCl, 0.1% NP-40, 1 mM EDTA; blot with anti-MBP
Conditions: both partners purified

Binding result, binds:
B1, B2, B3

— PMC9544323, “Abscisic acid regulates stomatal production by imprinting a SnRK2 kinase–mediated phosphocode on the master regulator [sequence]” (Science Advances, 2022)
